Assay: soluble on expression in E. coli; label from the status in PepcDB or PDB records
In the case of “MKQHQSADNSQGQLYIVPTPIGNLADITQRALEVLQAVDLIAAEDTRHTGLLLQHFGINARLFALHDHNEQQKAETLLAKLQEGQNIALVSDAGTPLINDPGYHLVRTCREAGIRVVPLPGPCAAITALSAAGLPSDRFCYEGFLPAKSKGRRDALKAIEAEPRTLIFYESTHRLLDSLEDIVAVLGESRYVVLARELTKTWETIHGAPVGELLAWVKEDENRRKGEMVLIVEGHKAQEEDLPADALRTLALLQAELPLKKAAALAAEIHGVKKNALYKYALEQQG”, the “soluble on expression in E. coli” value is reported as “soluble”. In the case of “MNFLKKEPFKIFSMIYLLLDTITNRAGTERAVINLANNLHANGHRVSLVSVCTKEGEPSFQVEKGIEVHHLGIRLYGNALARKTVYFKAYRRIKALYKKREPVLLIGTNIFINTILSQISNRGRIFTIGCEHISYDIARPITKRIRGFLYSGLDAVVALTKRDQQSFEAILRGRSKAYVIPNQVSFTTVQRDATTHKQMLAIGRLTYQKGFEFMIEDASRVLRERPDWKLIIVGDGENESMLRKEIASRNMESQIEIHPSTPEIRKYYESSAIYLMTSRFEGLPMVLLEAEAYALPIISYDCPTGPRELIENGRNGFLVPMEAHEDFADKLRLLMDDETLRKKMGQESELMVKSYSPANIYECWKKLFVEIGYMN”, the “soluble on expression in E. coli” value is reported as “soluble”. In the case of “STVKRKPVFVKVEQLKPGTTGHTLTVKVIEANIVVPVTRKTRPASSLSRPSQPSRIVECLIGDETGCILFTARNDQVDLMKPGATVILRNSRIDMFKGTMRLGVDKWGRIEATGAASFTVKEDNNLSLVEYE”, the “soluble on expression in E. coli” value is reported as “soluble”. In the case of “MSLNEEQLSKRLEKVASYITKNERIADIGSDHAYLPCFAVKNQTASFAIAGEVVDGPFQSAQKQVRSSGLTEQIDVRKGNGLAVIEKKDAIDTIVIAGMGGTLIRTILEEGAAKLAGVTKLILQPNIAAWQLREWSEQNNWLITSEAILREDNKVYEIMVLAPSEKPVTWTKQEIFFGPCLLKEQSAIFKSKWRHEANTWQNIIQTISNNQPVSTENQAKIRELEHKIALVEDVLKEGHHHHHH”, the “soluble on expression in E. coli” value is reported as “soluble”. With “MGSDKIHHHHHHMPKLGFVQVEVSTRCQLSCLMCPKSCFSDEWIAKDMNMETFRLIPFKKFHYAHLQGWGEPLLNPNIGEMVDIAAKSCKVGLTTNGLLIDHHIDSILKLDLLAVSVASGDARQHERVRGCSLEKLAGNIKLVSESRGKRPKIVIATMMLKSTIESLPKLIDFAAECGADEVIANNLDYIPSKELVGEEVFGLTADKDVEKAVEQAGKRAEELGIGFIAKPRLMEEALVCAENPVENCVVAVDGRIAPCAYLNLPTASETIPRWFRGRTVEVPKVYFSSFKEWLKSDFRDTFKRRLQVLHQSLPTELPPLPQPCRTCYKAYSV” the “soluble on expression in E. coli” value was “not soluble”. In the case of “MHYSSGNYEAFVRPRKSESADKKTAWLVGSGLAGLAGAAFLIRDGGVAGERITILEELDVPGGALDGLDVPEKGFVIRGGREMEEHFECLWDLYRSIPSLEVEDASVLDEFYRLNKDDPNFSLQRATQNQGQDAPDKALLTLNDRAQKDLLSVFLATREEMENKRINEVFSEDFLKSNFWLYWRTMFAFEEWHSALEMKLYLHRFIHHIGNLADFSSLKFNRYNQYESMVLPLVKWLQDHGVRFRYGIEVTDVDFDIHAEGKQATRIHWTEKGVEGGVDLGPDDLVLITIGSLTENSDNGDHHTPAKLREGPAPAWDLWRRIAAKDPAFGRPDVFGAHVTETKWASATITALDQRIPQYVEKIAKRNPFTGKIVTGGIVTVKDSSWLMSWAVHRQPHFKKQPKDQMIAWLYALFVDRPGDYVKKPMLDCTGEEITQEWLYHLGVPVEDIPELAAAGANTVPVMMPYITAFFMPRQAGDRPDVVPEGAVNFAFIGQFAESKQRDCIFTTEYSVRTPMEAVYTLMNVERGVPEVFNSTYDIRTLLAAIGPLRDGKGIDLPGPSFLHKLLMKKLEGTEIAELLKEFHLISELEHHHHHH”, the “soluble on expression in E. coli” value is reported as “not soluble”. For “MGFTTVAKEEKVTKVAEVFHSVAAKYDIMNDLMSGGIHRLWKRFTIDCSGARPGQRILDLGGGTGDLTAKFSRIVGDQGHVVLADINNSMLNVGRDKLRDNGIVGNVHYVQANAEELPFPDDYFDVITISFCLRNVTDKDKALRSMFRVLKPGGRLLVLEFSKPVLEPLSKVYDAYSFHLLPKMGELVANDAESYRYLAESIRMHPDQETLEGMMQDAGFENTKYYNLTGGIVALHRGLEHHHHHH”, the “soluble on expression in E. coli” value was “not soluble”. For “QLSSFETCAEKEESANTTESAIFEYHCEMSFDPNLLHNNGHNGYPNGTSAALRETGVIEKLLTSYGFIQCSERQARLFFHCSQYNGNLQDLKVGDDVEFEVSSDRRTGKPIAVKLVKIKQEILPEERMNGQVVCAVPHNLESKSPAAPGQSPTGSVCYERNGEVFYLTYTPEDVEGNVQLETGDKINFVIDNNKHTGAVSARNIMLLKKKQARCQGVVCAMKEAFGFIERGDVVKEIFFHYSEFKGDLETLQPGDDVEFTIKDRNGKEVATDVRLLPQGTVIFEDISIEHFEGTVTKVIPKVPSKNQNDPLPGRIKVDFVIPKELPFGDKDTKSKVTLLEGDHVRFNISTDRRDKLERATNIEVLSNTFQFTNEAREMGVIAAMRDGFGFIKCVDRDVRMFFHFSEILDGNQLHIADEVEFTVVPDMLSAQRNHAIRIKKLPKGTVSFHSHSDHRFLGTVEKEATFSNPKTTSPNKGKEKEAEDGIIAYDDCGVKLTIAFQAKDVEGSTSPQIGDKVEFSISDKQRPGQQVATCVRLLGRNSNSKRLLGYVATLKDNFGFIETANHDKEIFFHYSEFSGDVDSLELGDMVEYSLSKGKGNKVSAEKVNKTHSVNGITEEADPTIYSGKVIRPLRSVDPTQTEYQGMIEIVEEGDMKGEVYPFGIVGMANKGDCLQKGESVKFQLCVLGQNAQTMAYNITPLRRATVECVKDQFGFINYEVGDSKKLFFHVKEVQDGIELQAGDEVEFSVILNQRTGKCSACNVWRVCEGPKAVAAPRPDRLVNRLKNITLDDASAPRLMVLRQPRGPDNSMGFGAERKIRQAGVID”, the “soluble on expression in E. coli” value was “soluble”. For “MDELFTESAKAVLAIAQEEAKYFRHQSVGSEHLLLALVLEPNGIAGKTLRQLNTDTEDIREEIEHLSGYGTMQSPMGNNNLYLPYSPRAKQIFAYAGDEAKRLGAQKIGTEHLLLGLLRDEEILASRILVNLGLSLSKMRQLLLKKMG”, the “soluble on expression in E. coli” value was “soluble”. With “MLADKVKLSAKEILEKEFKTGVRGYKQEDVDKFLDMIIKDYETFHQEIEELQQENLQLKKQLEEASKKQPVQSNTTNFDILKRLSNLEKHVFGSKLYD” the “soluble on expression in E. coli” value was “not soluble”. For “MSSIKIECVLPENCRCGESPVWEEVSNSLLFVDIPAKKVCRWDSFTKQVQRVTMDAPVSSVALRQSGGYVATIGTKFCALNWKEQSAVVLATVDNDKKNNRFNDGKVDPAGRYFAGTMAEETAPAVLERHQGALYSLFPDHHVKKYFDQVDISNGLDWSLDHKIFYYIDSLSYSVDAFDYDLQTGQISNRRSVYKLEKEEQIPDGMCIDAEGKLWVACYNGGRVIRLDPVTGKRLQTVKLPVDKTTSCCFGGKNYSEMYVTCARDGMDPEGLLRQPEAGGIFKITGLGVKGIAPYSYAG”, the “soluble on expression in E. coli” value was “soluble”. With “MGSSHHHHHHGSSNILIINGAKKFAHSNGQLNDTLTEVADGTLRDLGHDVRIVRADSDYDVKAEVQNFLWADVVIWQMPGWWMGAPWTVKKYIDDVFTEGHGTLYASDGRTRKDPSKKYGSGGLVQGKKYMLSLTWNAPMEAFTEKDQFFHGVGVDGVYLPFHKANQFLGMEPLPTFIANDVIKMPDVPRYTEEYRKHLVEIFG” the “soluble on expression in E. coli” value was “soluble”. For “PPGTVDKKMVEKCWKLMDKVVRLCQNPKLALKNSPPYILDLLPDTYQHLRTILSRYEGKMETLGENEYFRVFMENLMKKTKQTISLFKEGKERMYEENSQPRRNLTKLSLIFSHMLAELKGIFPSGLFQGDTFRITKADAAEFWRKAFGEKTIVPWKSFRQALHEVHPISSGLEAMALKSTIDLTCNDYISVFEFDIFTRLFQPWSSLLRNWNSLAVTHPGYMAFLTYDEVKARLQKFIHKPGSYIFRLSCTRLGQWAIGYVTADGNILQTIPHNKPLFQALIDGFREGFYLFPDGRNQNPDLTGLCEPTPQDHIKVTQEQYELYCEMGSTFQLCKICAENDKDVKIEPCGHLMCTSCLTSWQESEGQGCPFCRCEIKGTEPIVVDPF”, the “soluble on expression in E. coli” value was “soluble”. In the case of “MAQVFNFSSGPAMLPAEVLKLAQQELCDWHGLGTSVMEISHRGKEFIQVAEEAEQDFRDLLNIPSNYKVLFCHGGGRGQFAGVPLNLLGDKTTADYVDAGYWAASAIKEAKKYCAPQIIDAKITVDGKRAVKPMREWQLSDNAAYLHYCPNETIDGIAIDETPDFGPEVVVTADFSSTILSAPLDVSRYGVIYAGAQKNIGPAGLTLVIVREDLLGKAHESCPSILDYTVLNDNDSMFNTPPTFAWYLSGLVFKWLKAQGGVAAMHKINQQKAELLYGVIDNSDFYRNDVAQANRSRMNVPFQLADNTLDKVFLEESFAAGLHALKGHRVVGGMRASIYNAMPIEGVKALTDFMIDFERRHG”, the “soluble on expression in E. coli” value is reported as “not soluble”. For “SFLNGNCLETLKKKEPEGGRRRLSHPGNMGWMRPSQETTPPDRSHHSGFGLFCGDPGPEIEPFSLWVFPQEMVLEIHQLFMDHEYPCHHITSHCTWVAAHWTTSQSCAAWQGCRRACCSTWWKSPAQCTRPTVMSATFETAQEPGPS”, the “soluble on expression in E. coli” value was “soluble”. With “SNLDGSAQDPEKREYSSVCVGREDDIKKSERMTAVVHDREVVIFYHKGEYHAMDIRCYHSGGPLHLGDIEDFDGRPCIVCPWHKYKITLATGEGLYQSINPKDPSAKPKWCSKGIKQRIHTVTVDNGNIYVTLSNEPFKCDSDFYATGDFKVIKSSS” the “soluble on expression in E. coli” value was “soluble”. With “MKKRILSAVLVSGVTLSAAASVHAEDYDSQIAATNNAISNLASQQEAAQAQVATIQSQVSTLRTQKTELEAKNAELEKVSADLESEIQELSSKIVARQDSLAKQARSAQQNNTATSYINSILNSKSISEAITRITAISKVVTANNDLLTKQESDQKELAAKQEENQAAINTIAANKSELETTEAGLTTQQAELEAAQVTLAAELATAQNEKTSLVSAKSTAESVAASTAASVAQSQAIAESEATAQVVASSEAATSVASSEVAATSEAVAQPSETPVSETSTASEAAQEPASSETSEVQPESAAPAVSEAPASVAPVATSEAAPATSEAPASVAPVATSEAAPAVSEAPAPAAETHKVSAASTPNTYPVGQCTWGVKSLAPWAGNNWGNAKNWIASAQAAGHSVGTTPVAGAIAVWPNDGGGYGHVAYVTSASGANSIQVMESNYAGNMSISNYRGTFDPTSSAHGGSVFYIYPLEHHHHHH” the “soluble on expression in E. coli” value was “soluble”. In the case of “MQGYHHPLATNHQTQYGTVGQALHIARKLLPFIPDNAGILIVPCCRGGSAFTAGSEGTYSERHGASHDACRWGTDTPLYQDLVSRTRAALAKNPQNKFLGVCWMQGEFDLMTSDYASHPQHFNHMVEAFRRDLKQYHSQLNNITDAPWFCGDTTWYWKENFPHSYEAIYGNYQNNVLANIIFVDFQQQGERGLTNAPDEDPDDLSTGYYGSAYRSPENWTTALRSSHFSTAARRGIISDRFVEAILQFWRER”, the “soluble on expression in E. coli” value is reported as “not soluble”. With “MSLEWTKLTGTLKPDKDVKRGMLAIQPLGKGQFQLDVVSLFPSDTWDNGKSVFRADIMQNLKEYAPDFIRFPGGCIVHGVNEATMYHWKKTIGPIENRPGQWSKWAPYYRTDGIGYHEFYELCEYLGADAMYVIPTGMICTGWVKQSSPWNFIQPDVDLDAYIQDALDAIEYAIGPETSKWGALRVKNGHPKPFPLKYIEIGNEDFGPVYWERYEKIYQALHRQYPDLIYIANSIIGKENDDKRIDIAKFVNPKNVKVFDEHHYQPVEWACKQHYRFDNYERGIADLFVGELGIDGKYPYNLLASGAVRMSLERNGDLNPLLAERPVMRHWDFSEHRQLHSMLINGVDCSIRTSFYYLSKMFRDHTFDVCLDAGIQGMKGLQNVFVTMGYDSESKEYILKLINLRKQEVVLQTAVKGFGKKIQAQKITLSLEPGKNNTPEMPDAVKPVQSTVTLDLNKDLQLEASSMIVYRFKEGHHHHHH” the “soluble on expression in E. coli” value was “not soluble”. For “MAHHHHHHMYSDGERKTVSELQREAEATRKEIIEEAQRLERIKKATAKTQFSIDQLFRFFAREVETEGEKKMLIDLLSSNPPDLHIECVPVLPVVIAIANGRMTNARRIYATDNAFLDDSAFIFLVHTLRFLPQACKIDFLDISGTRVTERGMCFVLEMMIERNTPFTLVAKRLSIPSPEAEAMRARYASLMSALRDKKCCRFIQE”, the “soluble on expression in E. coli” value was “not soluble”.

— the DeepSol protein solubility set
